This note sets out measurements from US20180250395A1 (Janssen / Centocor, published 2018).

Where a chain is given by its changes, count along the chain named.

To fix the notation:
B1: C47B213 (antibody, V domains shown)
VH: EVQLVQSGAEVKKPGESLKISCKGSGYSFDDSWIGWVRQMPGKGLEWMGIIYPGDSDTRYSPSFQGQVTISADKSISTAYLQWSSLKASDTAVYYCARVGRFASHQLDYWGQGTLVTVSS
VL: EIVLTQSPATLSLSPGERATLSCRASQSVNKALAWYQQKPGQAPRLLIYGASNRATGIPARFSGSGSGTDFTLTISSLEPEDFAVYYCQQGKGWPFTFGQGTKVEIK
notes: human IgG2sigma/kappa
B2: C47B231 (antibody, V domains shown)
VH: B1 VH with D30T, D31N, S32Y
VL: B1 VL
notes: human IgG2sigma/kappa
B3: C47B218 (antibody, V domains shown)
VH: B1 VH with D30T
VL: B1 VL with K31N, A32R, Y49H, G50W, N53T, T56I, K92A, G93S
notes: human IgG2sigma/kappa
B4: C47B215 (antibody, V domains shown)
VH: B1 VH
VL: B1 VL with N30G, K31S, A32R, G50W, N53T, K92A, G93Y
notes: human IgG2sigma/kappa
B5: C47B230 (antibody, V domains shown)
VH: B1 VH with D30T, S32D
VL: B1 VL
notes: human IgG2sigma/kappa
B6: C47B220 (antibody, V domains shown)
VH: B1 VH with D30T
VL: B1 VL with N30S, K31N, A32R, L33Q, Y49H, G50S, K92R, G93S
notes: human IgG2sigma/kappa
B7: C47B214 (antibody, V domains shown)
VH: B1 VH
VL: B1 VL with K31N, A32R, Y49H, G50W, N53T, T56I, K92A, G93S
notes: human IgG2sigma/kappa
B8: C47B225 (antibody, V domains shown)
VH: B1 VH with S32Y
VL: B1 VL
notes: human IgG2sigma/kappa
B9: C47B216 (antibody, V domains shown)
VH: B1 VH
VL: B1 VL with N30S, K31N, A32R, L33Q, Y49H, G50S, K92R, G93S
notes: human IgG2sigma/kappa
B10: C47B228 (antibody, V domains shown)
VH: B1 VH with S32Y
VL: B1 VL with N30S, K31N, A32R, L33Q, Y49H, G50S, K92R, G93S
notes: human IgG2sigma/kappa
B11: C47B227 (antibody, V domains shown)
VH: B1 VH with S32Y
VL: B1 VL with N30G, K31S, A32R, G50W, N53T, K92A, G93Y
notes: human IgG2sigma/kappa
B12: C47B222 (human IgG2sigma) (antibody, V domains shown)
VH: B1 VH with D30T, S32Y
VL: B1 VL with K31N, A32R, Y49H, G50W, N53T, T56I, K92A, G93S
notes: human IgG2sigma/kappa; also called IgG2 Fc-silent C47B222
B13: C47B219 (antibody, V domains shown)
VH: B1 VH with D30T
VL: B1 VL with N30G, K31S, A32R, G50W, N53T, K92A, G93Y
notes: human IgG2sigma/kappa
B14: C47B229 (antibody, V domains shown)
VH: B1 VH with S32A
VL: B1 VL
notes: human IgG2sigma/kappa
B15: C47B221 (antibody, V domains shown)
VH: B1 VH with D30T, S32Y
VL: B1 VL
notes: human IgG2sigma/kappa
B16: C47B232 (antibody, V domains shown)
VH: B1 VH with D30T, D31N, S32Y
VL: B1 VL with K31N, A32R, Y49H, G50W, N53T, T56I, K92A, G93S
notes: human IgG2sigma/kappa
B17: C47B226 (antibody, V domains shown)
VH: B1 VH with S32Y
VL: B1 VL with K31N, A32R, Y49H, G50W, N53T, T56I, K92A, G93S
notes: human IgG2sigma/kappa; also called C27B226
B18: C47B223 (antibody, V domains shown)
VH: B1 VH with D30T, S32Y
VL: B1 VL with N30G, K31S, A32R, G50W, N53T, K92A, G93Y
notes: human IgG2sigma/kappa
B19: C47B217 (antibody, V domains shown)
VH: B1 VH with D30T
VL: B1 VL
notes: human IgG2sigma/kappa
B20: C47B224 (antibody, V domains shown)
VH: B1 VH with D30T, S32Y
VL: B1 VL with N30S, K31N, A32R, L33Q, Y49H, G50S, K92R, G93S
notes: human IgG2sigma/kappa

The first test deals with T1, Cyno CD47 ECD protein, His-tagged, monomer (cyno).
T1 construct: extracellular domain; also called cynomolgus CD47
Briefly: ProteOn SPR; mAb captured, ECD monomer as analyte.
Turning to B1, the equilibrium dissociation constant (Kd) (as a rule, a measure of binding affinity in units of concentration) turned out to be 4.25 nM.
Still for that read-out and setting: then B2, with 12.3 nM; and B3, with 1.58 nM; and B4, with 1.44 nM.
Still for that read-out and setting: then B5, with 7.28 nM; and B6, with 3.74 nM.
Molecule B7 showed a Kd of 1.4 nM.
The molecule B8 registered a dissociation constant (Kd) of 3.76 nM.
With B9, the affinity, expressed as Kd, was 2.74 nM.
In turn, B10 yielded a dissociation constant (Kd) of 2.53 nM.
On the same count and under the same terms, then B11, with 0.574 nM; and B12, with 0.842 nM.
In the case of B13, the equilibrium dissociation constant (Kd) is 1.66 nM.
In turn, B14 yielded an equilibrium dissociation constant (Kd) of 8.32 nM.
Regarding B15, the dissociation constant (Kd) was 4.5 nM.
Regarding B16, the affinity, expressed as Kd, was 2.42 nM.
B17 showed a dissociation constant (Kd) of 0.543 nM.
B18 gave a Kd of 0.807 nM.
B19 displayed a Kd of 5.56 nM.
Still for that read-out and setting: in the case of B20 it was 2.19 nM.

In another test the target is T2, recombinant human CD47 extracellular domain (ECD), His-tagged, monomer (human, UniProt Q08722 19-141).
T2 construct: C-terminal 6xHis tag; monomeric fraction from Superdex 200; also called human CD47 ECD; CD47-ECD monomer
Briefly: ProteOn SPR; mAb captured, ECD monomer as analyte.
Regarding B1, the Kd turned out to be 2.33 nM.
Take B2: the Kd was 11.3 nM.
In the case of B3, the Kd came to 2.56 nM.
Take B4: the Kd worked out at 2.05 nM.
Regarding B5, the Kd came out at 1.99 nM.
On to B6, for which the Kd is 4.3 nM.
In the case of B7, the Kd is 2.3 nM.
As for B8, the Kd stood at 3.31 nM.
Regarding B9, the Kd turned out to be 3.35 nM.
Still for that read-out and setting: then B10, with 2.69 nM; and B11, with 0.902 nM; and B12, with 1.12 nM.
For B13, the Kd came out at 2.58 nM.
For the molecule B14, the Kd turned out to be 2.15 nM.
With B15, the dissociation constant Kd was 5.21 nM.
With B16, the equilibrium dissociation constant (Kd) came to 2.8 nM.
The same measure, in the same setting: in the case of B17 it was 0.872 nM; in that of B18, 1.14 nM.
With B19, the Kd amounted to 7.67 nM.
Turning to B20, the dissociation constant Kd came out at 2.46 nM.

The next test deals with T1, Cyno CD47 ECD protein, His-tagged, …. Briefly: ProteOn SPR; cyno KD / human KD.
B1: the “KD Ratio Cyno/Human” value came to 1.8.
Same read-out and setting: then B2, with 1.1; and B3, with 0.6; and B4, with 0.7.
Consider B5, for which the “KD Ratio Cyno/Human” value worked out at 3.7.
Regarding B6, the “KD Ratio Cyno/Human” value was determined as 0.9.
On the same count and under the same terms, then B7, with 0.6; and B8, with 1.1; and B9, with 0.8.
On the same count and under the same terms, then B10, with 0.9; and B11, with 0.6; and B12, with 0.8.
Take B13: the “KD Ratio Cyno/Human” value is 0.6.
In the case of B14, the “KD Ratio Cyno/Human” value came to 3.9.
Still for that read-out and setting: then B15, with 0.9; and B16, with 0.9; and B17, with 0.6.
As for B18, the “KD Ratio Cyno/Human” value worked out at 0.7.
For the molecule B19, the “KD Ratio Cyno/Human” value came out at 0.7.
As to B20, the “KD Ratio Cyno/Human” value amounted to 0.9.

For another test, the target named is T3, recombinant human CD47 extracellular domain (ECD), His-tagged, dimer (human, UniProt Q08722 19-141).
T3 construct: Dimeric fraction of the same His-tagged ECD; also called His-tagged CD47-ECD dimer protein
Briefly: MSD; CD47-ECD dimer binding to captured SIRP alpha-Fc, mAb 10 µg/ml.
With B1, the “% SIRP alpha Inhibition” value came to 71.6%.
Turning to B2, the “% SIRP alpha Inhibition” value is 83.7%.
With B3, the “% SIRP alpha Inhibition” value was 98.9%.
For the molecule B4, the “% SIRP alpha Inhibition” value came to 99.6%.
For the molecule B5, the “% SIRP alpha Inhibition” value is 28.4%.
As for B6, the “% SIRP alpha Inhibition” value turned out to be 98.6%.
For the molecule B7, the “% SIRP alpha Inhibition” value is 99.7%.
Consider B8, for which the “% SIRP alpha Inhibition” value was determined as 96.3%.
On to B9, for which the “% SIRP alpha Inhibition” value turned out to be 99.8%.
For B10, the “% SIRP alpha Inhibition” value was determined as 99.3%.
For B11, the “% SIRP alpha Inhibition” value is 100%.
On the same count and under the same terms, in the case of B12 it was 99.9%; in that of B13, 99.4%; in that of B14, 16.1%.
Turning to B15, the “% SIRP alpha Inhibition” value was 95%.
Take B16: the “% SIRP alpha Inhibition” value was determined as 99.6%.
In the case of B17, the “% SIRP alpha Inhibition” value worked out at 100%.
In the case of B18, the “% SIRP alpha Inhibition” value came to 100%.
Turning to B19, the “% SIRP alpha Inhibition” value came out at 83.1%.
Turning to B20, the “% SIRP alpha Inhibition” value was 99.7%.
